# Bridge positions count the residues as written; N and C are the ends. Square brackets hold non-standard residues; d marks the D form. Primed or numbered codes have the meaning given here. Ends that are not written are not given here. Gd^T″ = GdDTPA-thiourea
# Molecular target: T1, human collagen type I (acid soluble, extracted from placenta, Sigma C7774) (human, UniProt P02452 162-1218; P08123 80-1119)
# T1 construct: gelled and dried as a fibril film in the assay; also called dried human collagen; h-Collagen
# Experiment: dried collagen assay
# Protocol: An additional 90 μL is reserved in a HPLC glass vial as a measure of the total concentration.
# T1 sequence (P02452 162-1218 limits assumed, chain 1 of 2): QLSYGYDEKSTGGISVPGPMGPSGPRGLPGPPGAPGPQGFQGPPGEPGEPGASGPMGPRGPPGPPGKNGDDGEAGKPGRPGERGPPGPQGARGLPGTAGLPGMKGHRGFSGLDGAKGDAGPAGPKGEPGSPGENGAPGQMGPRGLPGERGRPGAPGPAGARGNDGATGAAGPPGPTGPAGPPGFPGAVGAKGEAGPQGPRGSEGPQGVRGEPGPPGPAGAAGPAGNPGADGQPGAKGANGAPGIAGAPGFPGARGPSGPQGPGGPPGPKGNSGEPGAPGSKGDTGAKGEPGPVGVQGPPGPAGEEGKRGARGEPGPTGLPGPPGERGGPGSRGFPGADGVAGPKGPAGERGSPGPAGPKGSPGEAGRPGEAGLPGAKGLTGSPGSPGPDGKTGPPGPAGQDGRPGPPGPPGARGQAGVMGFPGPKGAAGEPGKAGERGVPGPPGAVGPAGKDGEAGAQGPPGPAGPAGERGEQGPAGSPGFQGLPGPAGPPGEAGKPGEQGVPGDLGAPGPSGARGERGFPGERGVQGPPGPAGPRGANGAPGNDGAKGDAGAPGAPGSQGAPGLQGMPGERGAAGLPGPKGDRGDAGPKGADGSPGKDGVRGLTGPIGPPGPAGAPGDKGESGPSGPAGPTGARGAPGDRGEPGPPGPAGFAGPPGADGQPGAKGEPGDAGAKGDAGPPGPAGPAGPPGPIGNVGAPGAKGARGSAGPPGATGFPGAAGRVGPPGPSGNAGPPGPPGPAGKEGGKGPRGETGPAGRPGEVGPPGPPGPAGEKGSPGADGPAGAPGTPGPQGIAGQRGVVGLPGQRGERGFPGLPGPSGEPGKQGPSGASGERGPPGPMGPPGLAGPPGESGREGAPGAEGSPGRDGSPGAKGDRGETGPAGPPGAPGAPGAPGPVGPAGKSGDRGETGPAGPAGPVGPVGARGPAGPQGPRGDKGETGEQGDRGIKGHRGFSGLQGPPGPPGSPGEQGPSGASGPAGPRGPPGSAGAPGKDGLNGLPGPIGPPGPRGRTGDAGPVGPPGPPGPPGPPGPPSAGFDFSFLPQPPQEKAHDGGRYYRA
# T1 sequence (P08123 80-1119 limits assumed, chain 2 of 2): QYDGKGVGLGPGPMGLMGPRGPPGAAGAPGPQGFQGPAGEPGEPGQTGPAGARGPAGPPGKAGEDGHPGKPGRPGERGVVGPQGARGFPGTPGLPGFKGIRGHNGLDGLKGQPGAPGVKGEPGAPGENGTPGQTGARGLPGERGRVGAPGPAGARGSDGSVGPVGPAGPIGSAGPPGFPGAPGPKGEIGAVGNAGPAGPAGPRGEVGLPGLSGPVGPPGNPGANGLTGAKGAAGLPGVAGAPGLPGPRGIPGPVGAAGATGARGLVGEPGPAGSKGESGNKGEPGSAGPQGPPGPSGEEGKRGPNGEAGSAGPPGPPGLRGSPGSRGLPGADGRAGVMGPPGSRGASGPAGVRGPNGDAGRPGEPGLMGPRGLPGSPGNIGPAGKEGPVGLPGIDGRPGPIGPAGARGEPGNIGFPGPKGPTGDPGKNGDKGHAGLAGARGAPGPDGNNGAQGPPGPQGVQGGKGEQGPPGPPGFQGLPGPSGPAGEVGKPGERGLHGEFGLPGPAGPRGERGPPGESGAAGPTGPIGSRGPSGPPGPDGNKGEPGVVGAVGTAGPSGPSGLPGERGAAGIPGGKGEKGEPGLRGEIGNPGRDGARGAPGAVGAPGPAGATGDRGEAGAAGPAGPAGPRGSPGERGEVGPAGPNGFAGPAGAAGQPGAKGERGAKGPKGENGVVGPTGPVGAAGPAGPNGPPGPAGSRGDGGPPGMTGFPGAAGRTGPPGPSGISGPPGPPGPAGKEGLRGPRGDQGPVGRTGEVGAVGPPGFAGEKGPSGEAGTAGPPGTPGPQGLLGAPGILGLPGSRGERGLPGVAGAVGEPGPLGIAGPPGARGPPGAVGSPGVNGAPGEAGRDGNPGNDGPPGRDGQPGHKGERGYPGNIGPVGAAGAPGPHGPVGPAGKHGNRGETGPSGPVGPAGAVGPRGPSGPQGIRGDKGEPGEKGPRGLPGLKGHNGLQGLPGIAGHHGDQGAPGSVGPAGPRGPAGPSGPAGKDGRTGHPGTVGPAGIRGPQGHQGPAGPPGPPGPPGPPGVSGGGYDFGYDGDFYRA
row,Binder,% bound [%]
1,EWQCTQYANQWNCKYN (disulfide 4-13 (inferred)) [SEQ ID NO: 45],25
2,SWHCALMGSRWVCGQN (disulfide 4-13 (inferred)) [SEQ ID NO: 71],3
3,SWNCHWRNQGWLCSGG (disulfide 4-13 (inferred)) [SEQ ID NO: 55],12
4,NWYCSQALDNWSCKLR (disulfide 4-13 (inferred)) [SEQ ID NO: 63],8
5,GWVCMMRETDWNCSI (disulfide 4-13 (inferred)) [SEQ ID NO: 58],10
6,SWNCHMIRNEWRCTGH (disulfide 4-13 (inferred)) [SEQ ID NO: 56],11
7,YWVCGGDHQSWHCSHP (disulfide 4-13 (inferred)) [SEQ ID NO: 35],8
8,QWFCEMDEYGKWNCGMM (disulfide 4-14 (inferred)) [SEQ ID NO: 81],3
9,TWICSHNDKGWTCGDQ (disulfide 4-13 (inferred)) [SEQ ID NO: 64],8
10,SWHCALVENSWQCSEA (disulfide 4-13 (inferred)) [SEQ ID NO: 73],1
11,MWDCTGNSAEWRCEMQ (disulfide 4-13 (inferred)) [SEQ ID NO: 34],11
12,GWACNTTSKGDWECTNL (disulfide 4-14 (inferred)) [SEQ ID NO: 83],3
13,HWTCDQAKGGAWSCSST (disulfide 4-14 (inferred)) [SEQ ID NO: 87],1
14,KWSCYMVDHQWYCREF (disulfide 4-13 (inferred)) [SEQ ID NO: 61],9
15,SWYCDWDDRKGWMCGSD (disulfide 4-14 (inferred)) [SEQ ID NO: 86],2
16,AWTCVGGEKTWGCVWN (disulfide 4-13 (inferred)) [SEQ ID NO: 33],12
17,LWTCSMDRNYDWVCGEK (disulfide 4-14 (inferred)) [SEQ ID NO: 82],3
18,KWFCELMQDQWQCGSK (disulfide 4-13 (inferred)) [SEQ ID NO: 50],18
19,PWTCRMTENTWVCDLN (disulfide 4-13 (inferred)) [SEQ ID NO: 47],22
20,RWTCDLQRGDWQCSTI (disulfide 4-13 (inferred)) [SEQ ID NO: 57],11
21,HWQCGEKMSFWSCELV (disulfide 4-13 (inferred)) [SEQ ID NO: 69],3
22,EWRCRGDSSSWLCDYT (disulfide 4-13 (inferred)) [SEQ ID NO: 40],3
23,GWNCYEYDSQWICDHL (disulfide 4-13 (inferred)) [SEQ ID NO: 44],28
24,TWRCDQFKGKWVCRGG (disulfide 4-13 (inferred)) [SEQ ID NO: 42],40
25,GWTCSQPGANVWNCTMQ (disulfide 4-14 (inferred)) [SEQ ID NO: 85],3

# The remaining lines, values ahead:
row,% bound [%],Binder
1,1,FGACDIFPTFHTCPGV (disulfide 4-13 (inferred)) [SEQ ID NO: 76]
2,1,EWHCVFIQGDWLCNSG (disulfide 4-13 (inferred)) [SEQ ID NO: 72]
3,23,GWVCLQKGPKWVCDWD (disulfide 4-13 (inferred)) [SEQ ID NO: 46]
4,10,HWQCRLTDYGWNCDER (disulfide 4-13 (inferred)) [SEQ ID NO: 59]
5,15,RWSCWLDENGWKCDGT (disulfide 4-13 (inferred)) [SEQ ID NO: 52]
6,19,AWFCSQKNRLWSCGET (disulfide 4-13 (inferred)) [SEQ ID NO: 49]
7,22,AWSCWIVEGRWNCSDI (disulfide 4-13 (inferred)) [SEQ ID NO: 48]
8,3,FWRCALLDGHWQCTDH (disulfide 4-13 (inferred)) [SEQ ID NO: 70]
9,10,EWHCVLNDFRWTCGGD (disulfide 4-13 (inferred)) [SEQ ID NO: 60]
10,1,VWACRGGTTNWHCDL (disulfide 4-13 (inferred)) [SEQ ID NO: 41]
11,30,PWQCYSDKTSWVCNLY (disulfide 4-13 (inferred)) [SEQ ID NO: 43]
12,18,KWFCELMHDQWQCGSK (disulfide 4-13 (inferred)) [SEQ ID NO: 51]
13,12,GWFCKLVDGNWECSTK (disulfide 4-13 (inferred)) [SEQ ID NO: 53]
14,12,MWNCTMTKSGWRCFEK (disulfide 4-13 (inferred)) [SEQ ID NO: 54]
15,3,HWSCDLAMDNEWFCSTK (disulfide 4-14 (inferred)) [SEQ ID NO: 84]
16,9,HWSCYLGDNGWNCHDR (disulfide 4-13 (inferred)) [SEQ ID NO: 62]

# Molecular target: human collagen type I (acid soluble, extracted from placenta, Sigma C7774) (human) (UniProt P02452)
# Experiment: dried collagen assay
# Chain of human collagen type I (acid soluble, extracted from placenta, Sigma C7774) (human) (P02452 162-1218 limits assumed, chain 1 of 2): as the sequence (P02452 162-1218 limits assumed, chain 1 of 2) above
# Chain of human collagen type I (acid soluble, extracted from placenta, Sigma C7774) (human) (P08123 80-1119 limits assumed, chain 2 of 2, further chain): as the sequence (P08123 80-1119 limits assumed, chain 2 of 2) above
row,Binder,% bound [%]
1,GQWHCTTDFPHXYCLYG (not fully specified; Gd^T-GQWHCTTDFPH-Dpr-YCLYG) [Comp ID 886],8
2,{Gd^T″}-DWTCS[dY]DEYTWHCNYE (disulfide 4-13 (inferred)) [Comp ID 829],20
3,GQWHCTTDYPHHYCLYG (not fully specified; Gd^T-GQWHCTTD-Y(3-Cl)-PHHYCLYG) [Comp ID 895],7
4,GQWHCTTRFPHHTCLYG (not fully specified; Gd^T-GQWHCTTRFPHHtCLYG) [Comp ID 905],6
5,GWQCFGASDWHCTWV (disulfide 4-12 (inferred)) [SEQ ID NO: 8],9
6,LWNCHGTDANWKCVLN (disulfide 4-13 (inferred)) [SEQ ID NO: 37],7
7,GQWHCTTRFPHHYCAYG (not fully specified; Gd^T-GQWHCTTRFPHHYCAYG) [Comp ID 855],27
8,FSECVWVNAYQCEYF (disulfide 4-12 (inferred)) [SEQ ID NO: 113],3

# The next lines start with the values.
row,% bound [%],Binder
1,12,PWTCSGDEYAWHCNYE (Gd^G-PWTCSGDEYAWHCNYe) [Comp ID 824]
2,6,GWQCSGDASVWNCDWI (disulfide 4-13 (inferred)) [SEQ ID NO: 39]
3,25,{Gd^T″}-GQWHCTTRFPHHYCLYG[dK](Gd^T″) (disulfide 5-14 (inferred)) [Comp ID 808]
4,7,SWSCGGDHNAWKCQYS (disulfide 4-13 (inferred)) [SEQ ID NO: 36]
5,7,GQWHCTTRFPHHRCLYG (not fully specified; Gd^T-GQWHCTTRFPHHrCLYG) [Comp ID 902]
6,5,WQVCADSPGVITYCYTY (disulfide 4-14 (inferred)) [SEQ ID NO: 98]
7,6,GWSCHGDAADWPCQWS (disulfide 4-13 (inferred)) [SEQ ID NO: 38]
8,2,PWWCHEMPSMCFGF (disulfide 4-11 (inferred)) [SEQ ID NO: 3]
